Patent US20220177594A1

B1: mouse: canine 02D09 chimera (antibody, V domains shown)
VH: EVQLVESGGGLVKPGGSLTLSCAASGFTFSDYGMHWLRQAPEKGLEWVAYISSGSRAVFFADTVKGRFTISRDNAKNTLFLQMTSLRSDDTAMYYCARDRYDGRGFAYWGQGTLVTVSA
VL: DIVLTQSPATLSVTPGDSVSLSCRASQSISNNLHWYQQTSHESPRLLITYASQSISGIPSRFSGSGSGTDFTLSINSVETEDFGMYFCQQSNSWPLTFGAGTKLELKR
B2: mouse: canine 09E09 chimera (antibody, V domains shown)
VH: DVKLVESGEGLVKPGGSLKLSCAASGFTFSSYAMSWVRQTPEKRLEWVAYISSGGDYIYYADTVKGRFTISRDNARNTLYLQMSSLKSEDTAMYYCTRDPITGTFAYWGQGTLVTVSA
VL: DLQMTQTTSSLSASLGDRVTISCRASQDINNYLNWYQQKPDGTVKLLIYYTSTLHSGVPSRFSGSGSGTDYSLTISNLEQEDIATYFCQQGNTLPWTFGGGTKLEIKR
B3: mouse: canine 10F07 chimera (antibody, V domains shown)
VH: DVKLVESGEGLVKPGGSLKLSCAASGFTFSSYAMSWVRQTPEKRLEWVTYISSGGDYFYYADTVKGRFTISRDNARNTLYLQMSSLKSEDTAMYYCTRDPITGTFAYWGQGTLVTVSA
VL: DIQMTQTTSSLSASLGDRVTISCRASQDITNYLNWYQQKPDGTVKLLIYYTSTLHSGVPSRFSGSGSGTDFSLTISNLEQEDIATYFCQQGHMLPWTFGGGTKLEIKR
B4: mouse: canine 19F07 chimera (antibody, V domains shown)
VH: EVKLVESEGGLVQPGSSMKLSCTASGFTFSDYYMAWVRQVPEKGLEWVANINYDGSSTYYLDSLKSRFIISRDNAKNILYLQMSSLKSEDTATYYCARGLTWDFDVWGTGTTVTVSS
VL: DIVMTQSHKFMSPSVGDRVSITCKASQDVDTAVAWYQQKPGQSPKLLIYLASTRHTGVPDRFTGSGSGTDFTLTISNVQSEDLADYFCQQYSRFPLTFGAGTKLELKR

Legend:
[1] = target: Feline_OSMR_hlgG1_Fc (feline); assay: SPR Biacore
Chain of Feline_OSMR_hlgG1_Fc (feline) (chain, as listed by the source limits assumed, form in doubt): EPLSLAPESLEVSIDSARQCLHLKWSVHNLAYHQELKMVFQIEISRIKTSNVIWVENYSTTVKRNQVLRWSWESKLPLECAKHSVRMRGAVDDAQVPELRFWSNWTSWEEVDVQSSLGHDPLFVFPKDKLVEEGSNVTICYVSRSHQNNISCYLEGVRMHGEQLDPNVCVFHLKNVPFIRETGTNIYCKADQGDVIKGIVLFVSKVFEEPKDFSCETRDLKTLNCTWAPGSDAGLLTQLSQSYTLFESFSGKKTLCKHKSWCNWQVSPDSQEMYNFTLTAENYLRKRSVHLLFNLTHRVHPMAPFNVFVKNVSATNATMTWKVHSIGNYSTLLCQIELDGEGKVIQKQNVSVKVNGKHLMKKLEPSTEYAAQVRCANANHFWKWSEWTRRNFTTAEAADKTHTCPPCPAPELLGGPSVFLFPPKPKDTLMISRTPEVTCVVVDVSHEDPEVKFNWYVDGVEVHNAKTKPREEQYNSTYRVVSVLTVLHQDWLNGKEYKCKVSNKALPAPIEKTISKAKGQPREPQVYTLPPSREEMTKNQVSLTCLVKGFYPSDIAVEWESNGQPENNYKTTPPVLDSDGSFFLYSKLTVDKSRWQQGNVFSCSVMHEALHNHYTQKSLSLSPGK

[2] = target: Canine_OSMR_hlgG1_Fc (canine); assay: SPR Biacore, OSMR on chip
Chain of Canine_OSMR_hlgG1_Fc (canine) (chain, as listed by the source limits assumed, form in doubt): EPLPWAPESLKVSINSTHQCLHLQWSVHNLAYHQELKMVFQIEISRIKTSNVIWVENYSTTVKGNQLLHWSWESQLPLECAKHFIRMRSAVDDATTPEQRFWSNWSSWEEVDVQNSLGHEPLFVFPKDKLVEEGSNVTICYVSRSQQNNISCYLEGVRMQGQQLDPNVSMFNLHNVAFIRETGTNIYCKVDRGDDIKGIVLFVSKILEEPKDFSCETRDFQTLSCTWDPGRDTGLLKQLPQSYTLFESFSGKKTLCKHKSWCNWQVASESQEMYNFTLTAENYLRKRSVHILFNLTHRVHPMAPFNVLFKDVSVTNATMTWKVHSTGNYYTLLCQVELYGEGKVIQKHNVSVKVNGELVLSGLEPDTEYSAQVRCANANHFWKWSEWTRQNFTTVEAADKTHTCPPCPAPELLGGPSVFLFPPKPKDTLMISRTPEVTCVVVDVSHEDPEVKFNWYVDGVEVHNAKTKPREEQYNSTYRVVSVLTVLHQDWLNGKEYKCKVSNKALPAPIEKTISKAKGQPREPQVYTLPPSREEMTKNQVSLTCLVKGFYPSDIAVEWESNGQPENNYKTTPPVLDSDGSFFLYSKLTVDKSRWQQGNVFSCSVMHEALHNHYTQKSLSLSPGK

[3] = target: Feline_OSMR_hlgG1_Fc (feline); assay: SPR Biacore, OSMR on chip
[4] = target: Feline_OSMR_hlgG1_Fc (feline); assay: indirect ELISA, fOSMR coated; OD ratio to antibody expression control
[5] = target: Canine_OSMR_hlgG1_Fc (canine); assay: SPR Biacore

Binder	Kd [1] [nM]	koff [1] [s⁻¹]	kon [1] [M⁻¹ s⁻¹]	Kd [2] [nM]	koff [2] [s⁻¹]	kon [2] [M⁻¹ s⁻¹]	Kd [3] [nM]	koff [3] [s⁻¹]	kon [3] [M⁻¹ s⁻¹]	ELISA ratio [4] [OD ratio]	Kd [5] [nM]	koff [5] [s⁻¹]	kon [5] [M⁻¹ s⁻¹]
B1	9.08	0.00119	131000	12.8	0.00328	256000	6.65	0.000942	142000	1.61			
B2	1.24	0.000945	759000	5.29	0.00104	196000	2.37	0.000697	294000	1.61	3.83	0.0021	572000
B3	1.57	0.000346	220000	1.38	0.000222	161000	0.022	4.4e-07	20000	1.76	6.13	0.000302	49400
B4	0.312	8.06e-05	242000	442	0.00084	1900	44.5	0.002	45100	1.72	7.49	0.000775	88400
